Consider two substances from paper PMC11623921 (Nature chemical biology, 2023).

The target in test [1] is TnmJ (Streptomyces sp. CB03234). Nature of the test: crystal structure.
For test [2] the target is unchanged. Nature of the test: SEC.
Test [3] has as its target TnmJ. Nature of the test: isothermal titration calorimetry. Format: binding, Streptomyces sp. CB03234. Particulars: native substrate.

For TnmJ (enzyme), the stoichiometry N in test [1] and in test [2] was 2 each time.

With TNM I [compound 8], the dissociation constant Kd in test [3] stood at 3.4 µM.
